Legend:
[1] = molecular target: the molecule itself; assay: FRET or BRET; bulk FRET between Alexa555 and Alexa647 on Cys155 of the two Top6B in the holoenzyme; 200 nM topo VI with 100 uM bp sheared salmon-sperm (short linear) DNA, before and over time after 1 mM AMPPNP; 50 mM potassium glutamate, 20 mM HEPES-KOH pH 7.5, 10 mM MgCl2
[2] = molecular target: the molecule itself; assay: FRET or BRET; bulk FRET between Alexa555 and Alexa647 on Cys155 of the two Top6B in the holoenzyme; 200 nM topo VI with 100 uM bp supercoiled plasmid DNA, before and over time after 1 mM AMPPNP; 50 mM potassium glutamate, 20 mM HEPES-KOH pH 7.5, 10 mM MgCl2

Protein	binding result [1]	binding result [2]
M. mazei Top6B cyslite-155C, Alexa555/Alexa647-labeled, in the topo VI holoenzyme (enzyme, Methanosarcina mazei, Alexa Fluor 555 C2 maleimide or Alexa Fluor 647 C2 maleimide on Cys155, Top6B of Methanosarcina mazei topo VI, 'cys-lite' with Thr155 changed to cysteine; Stood in the assay as part of the A2B2 holoenzyme with Top6A; population is a mix of donor-acceptor (50%), acceptor-acceptor (25%) and donor-donor (25%) labeled enzymes; also called topo VI^cyslite-155C; TopoVI^cyslite-155C; not shown: His6, N-terminal, cleaved) METPIAEELAKKQKSISVAEFFEKNRQILGFDSAPRSLITTVKEAVDNALDACEEAGILPDILVQVERTGPDYVTVIIEDNGPGIVREQIPKVFAKLLYGSRFHALKQSRGQQGIGISAAVLYAQMTAGRHTKILSKTSPTAPAHYYELMINTSCNEPDILVDEVRDWFRPHGTQIELEMRAAYVKGRRQSIYEYLKATAIVNPHARITLIDPDGNEEVFERATDKMPEPAEEILPHPEGIELGTLMKMLHYTERQKLAPFLRYSFSKIGLLTAEEIAKAAGLDPEIDPHALGRHEARKLIEAFEKVKIMAPPTDALSPIGEDLIYRGLEKETTVDFIATSTRKPAVYSGNPFVVEVGMAYGGNLPKEEKISIMRFANRVPLLYQQGGCVTTHAVEDIKWKQYGLNQPGGGIPVGPVILLIHVASINVPFTSESKDAIADIPVIKEEIDLAIKEVARKLKHYLSKQSNLKKRREKEIIITKVLPKLAAKVAHVLEKDVPDINPVVAKIMGNLLVHRVIKNNGDGTVDVAIKVKNFGTSAYSFRVHEMLPAKVSGAKPEPKVVTMGNDYDYVWDISASAGSSKVLSYKIESASEEELQKLPQLIVEGIEEELVTGAKAFKGV	binds	
M. mazei Top6B KGRR^AAA cyslite-155C, Alexa555/Alexa647-labeled, in the topo VI holoenzyme (enzyme, Methanosarcina mazei, Alexa Fluor 555 C2 maleimide or Alexa Fluor 647 C2 maleimide on Cys155, Top6B of Methanosarcina mazei topo VI, cyslite-155C with the KGRR^AAA mutations; Stood in the assay as part of the A2B2 holoenzyme with Top6A; also called Top6AB-KGRR^AAA cyslite-155C; KGRR^AAA FRET assay construct; not shown: His6, N-terminal, cleaved) METPIAEELAKKQKSISVAEFFEKNRQILGFDSAPRSLITTVKEAVDNALDACEEAGILPDILVQVERTGPDYVTVIIEDNGPGIVREQIPKVFAKLLYGSRFHALKQSRGQQGIGISAAVLYAQMTAGRHTKILSKTSPTAPAHYYELMINTSCNEPDILVDEVRDWFRPHGTQIELEMRAAYVAGAAQSIYEYLKATAIVNPHARITLIDPDGNEEVFERATDKMPEPAEEILPHPEGIELGTLMKMLHYTERQKLAPFLRYSFSKIGLLTAEEIAKAAGLDPEIDPHALGRHEARKLIEAFEKVKIMAPPTDALSPIGEDLIYRGLEKETTVDFIATSTRKPAVYSGNPFVVEVGMAYGGNLPKEEKISIMRFANRVPLLYQQGGCVTTHAVEDIKWKQYGLNQPGGGIPVGPVILLIHVASINVPFTSESKDAIADIPVIKEEIDLAIKEVARKLKHYLSKQSNLKKRREKEIIITKVLPKLAAKVAHVLEKDVPDINPVVAKIMGNLLVHRVIKNNGDGTVDVAIKVKNFGTSAYSFRVHEMLPAKVSGAKPEPKVVTMGNDYDYVWDISASAGSSKVLSYKIESASEEELQKLPQLIVEGIEEELVTGAKAFKGV		binds
M. mazei Top6B H2TH^AAA cyslite-155C, Alexa555/Alexa647-labeled, in the topo VI holoenzyme (enzyme, Methanosarcina mazei, Alexa Fluor 555 C2 maleimide or Alexa Fluor 647 C2 maleimide on Cys155, Top6B of Methanosarcina mazei topo VI, cyslite-155C with the H2TH^AAA mutations; Stood in the assay as part of the A2B2 holoenzyme with Top6A; also called Top6AB-H2TH^AAA cyslite-155C; not shown: His6, N-terminal, cleaved) METPIAEELAKKQKSISVAEFFEKNRQILGFDSAPRSLITTVKEAVDNALDACEEAGILPDILVQVERTGPDYVTVIIEDNGPGIVREQIPKVFAKLLYGSRFHALKQSRGQQGIGISAAVLYAQMTAGRHTKILSKTSPTAPAHYYELMINTSCNEPDILVDEVRDWFRPHGTQIELEMRAAYVKGRRQSIYEYLKATAIVNPHARITLIDPDGNEEVFERATDKMPEPAEEILPHPEGIELGTLMKMLHYTERQKLAPFLAYSFSAIGLLTAEEIAKAAGLDPEIDPHALGRHEARKLIEAFEKVAIMAPPTDALSPIGEDLIYRGLEKETTVDFIATSTRKPAVYSGNPFVVEVGMAYGGNLPKEEKISIMRFANRVPLLYQQGGCVTTHAVEDIKWKQYGLNQPGGGIPVGPVILLIHVASINVPFTSESKDAIADIPVIKEEIDLAIKEVARKLKHYLSKQSNLKKRREKEIIITKVLPKLAAKVAHVLEKDVPDINPVVAKIMGNLLVHRVIKNNGDGTVDVAIKVKNFGTSAYSFRVHEMLPAKVSGAKPEPKVVTMGNDYDYVWDISASAGSSKVLSYKIESASEEELQKLPQLIVEGIEEELVTGAKAFKGV		binds

— publication PMC5922973, “Topoisomerase VI senses and exploits both DNA crossings and bends to facilitate strand passage” (eLife, 2018)
